Numbering of substitutions follows the chain as printed. Where two headings read alike, the source gives them in different places.
What was measured:
[1] = biological target: T1, human DLL4 extracellular domain (human, UniProt Q9NR61 27-529); experiment: Biacore SPR
T1 construct: extracellular domain; coated on plates in the sVEGFR1 assay; also called huDLL4 ECD; Human DLL4 ECD
Experimental: (§1) Binding of DLL4 antibodies to a purified recombinant DLL4 extracellular domain is determined by surface plasmon resonance-based measurements with a Biacore® instrument (either a Biacore 2000, Biacore 3000, or Biacore T100, GE Healthcare, Piscataway, N.J. US) using running buffer HBS-EPB (10 mM HEPES [pH 7.4], 150 mM NaCl, 3 mM EDTA, 0.1 mg/ml BSA and 0.005% surfactant P20) at 25° C. For example, approximately 9000 RU of goat anti-human Fc specific polyclonal antibody (Thermo Fisher Scientific Inc., Rockford, Ill., US) diluted in 10 mM sodium acetate (pH 4.5) is directly immobilized across a CM5 research grade biosensor chip using a standard amine coupling kit according to manufacturer's instructions and procedures at 25 μg/ml. Unreacted moieties on the biosensor surface are blocked with ethanolamine. For kinetic analysis, rate equations derived from the 1:1 Langmuir binding model are fitted simultaneously to multiple antigen injections (using global fit analysis) with the use of Scrubber 2 (BioLogic Software). […] The equilibrium dissociation constant KD (M) of the reaction between antibodies and the target antigen is then calculated from the kinetic rate constants by the following formula: KD=Koff/Kₒₙ. Binding is recorded as a function of time and kinetic rate constants are calculated. In this assay, on-rates as fast as 10⁶ M⁻¹s⁻¹ and off-rates as slow as 10⁻⁶ s⁻¹ can be measured.

[2] = biological target: T2, mouse DLL4 extracellular domain (mouse, UniProt Q9JI71 27-532); experiment: Biacore SPR
T2 construct: extracellular domain; also called muDLL4 ECD; Mouse DLL4 ECD
Experimental: as §1

[3] = biological target: T3, human DLL4 on the cell surface (human, UniProt Q9NR61 27-685); experiment: cell-based or functional assay
[4] = biological target: T1, human DLL4 extracellular domain; experiment: capture ELISA
Experimental: (§2) ELISA plates were washed 3 times with wash buffer (PBS, 0.05% Tween-20) and then blocked with 200 ml/well blocking buffer (D-PBS, 1% BSA, 1 mM CaCl₂, 0.05% Tween-20) for 1 hour at 25° C. Plates were washed 3 times and incubated with 100 μl/well DLL4 antibodies (0.0001-100 nM, 10-fold serial dilution in blocking buffer) for 1 hour at 25° C., and then washed again 3 times. […] The reaction was stopped after 2 minutes at 25° C. with 100 μl/well 2 N H2SO₄ and the absorbance was read at 450 nm. Data were analyzed using Graphpad Prism software and EC₅₀ values were reported.

[5] = biological target: T2, mouse DLL4 extracellular domain; experiment: capture ELISA
Experimental: as §2

[6] = biological target: T1, human DLL4 extracellular domain; experiment: competition ELISA, competitor huNotch-1
Experimental: (§3) Plates were then washed 3 times with wash buffer (PBS, 0.05% Tween-20) and blocked with 200 μl/well blocking buffer (D-PBS, 1% BSA, 1 mM CaCl₂, 0.05% Tween-20) for 1 hour at 25° C. […] Assay plates were washed after blocking, and incubated with DLL4/antibody mixtures (100 μl/well, 1 hour at 25° C. with shaking). […] After a final wash, plates were developed using 100 μl/well substrate (TMB Sigma # T8665), and the reaction was stopped after an 8-minute incubation at 25° C. (for muDLL4 ELISA) and after 20 minute incubation at 25° C. (for huDLL4 ELISA) using 100 μl/well 1N HCl, and the absorbance was read at 450 nm.

[7] = biological target: T2, mouse DLL4 extracellular domain; experiment: competition ELISA, competitor huNotch-1
Experimental: as §3

[8] = biological target: T4, mouse DLL4 on the cell surface (mouse, UniProt Q9JI71 27-686); experiment: FACS on DLL4 cells
T4 construct: whole, on cells; also called HEK293-mDLL4; mDLL4-293G

[9] = biological target: T3, human DLL4 on the cell surface; experiment: FACS on DLL4 cells
[10] = biological target: T4, mouse DLL4 on the cell surface; experiment: competition FACS, competitor huNotch-1
Experimental: (§4) Notch blocking assay: Briefly, stable cell lines overexpressing cell-surface DLL4 were harvested from tissue culture flasks and re-suspended in phosphate buffered saline (PBS) containing 1% bovine serum albumin and 1 mM CaCl₂ (FACS buffer). HEK293-hDLL4 or HEK293-mDLL4 cells were dispensed into 96-well plate (v-bottom) at 1.5×10⁵ cells/well in FACS buffer. […] After washing the cells two times with FACS buffer, 50 μL of R-phycoerythrin-conjugated streptavidin (1:150 dilution in FACS buffer) (Jackson ImmunoResearch, West Grove, Pa., US, catalog no. 016-110-084) were added. Following an incubation on ice (4° C., 60 minutes), cells were washed three times and resuspended in FACS buffer. Fluorescence was measured using a Becton Dickinson FACSCalibur-HTS (Becton Dickinson, San Jose. Calif.).

[11] = biological target: T3, human DLL4 on the cell surface; experiment: competition FACS, competitor huNotch-1
Experimental: as §4

human DLL4-his [12] = biological target: T5, human DLL4-his (human, UniProt Q9NR61 27-529); experiment: ELISA on DLL4-his
T5 construct: extracellular domain
Experimental: (§5) After the final wash, plates were incubated with 100 μl/well ELISA substrate (Sigma # T8665). The reaction was stopped after 8 minutes at 25° C. with 100 μl/well 1N HCl and the absorbance was read at 450 nm. Data were analyzed using Graphpad Prism software and EC50 values were reported.

mouse DLL4-his [13] = biological target: T6, mouse DLL4-his (mouse, UniProt Q9JI71 27-532); experiment: ELISA on DLL4-his
T6 construct: extracellular domain; not shown: his tag

[14] = biological target: T1, human DLL4 extracellular domain; experiment: competition ELISA, competitor huNotch-1; remark: listed apart in the source
Experimental: as §3

[15] = biological target: T2, mouse DLL4 extracellular domain; experiment: competition ELISA, competitor huNotch-1; remark: listed apart in the source
Experimental: as §3

[16] = biological target: T4, mouse DLL4 on the cell surface; experiment: competition FACS, competitor huNotch-1; remark: listed apart in the source
Experimental: as §4

[17] = biological target: T3, human DLL4 on the cell surface; experiment: competition FACS, competitor huNotch-1; remark: listed apart in the source
Experimental: as §4

[18] = biological target: T1, human DLL4 extracellular domain; experiment: Biacore SPR; remark: listed apart in the source
Experimental: (§6) The BIACORE® surface plasmon resonance assay (Biacore, Inc., Piscataway, N.J., US) determines the affinity of antibodies with kinetic measurements of on-rate and off-rate constants. Binding of DLL4 antibodies to a purified recombinant DLL4 extracellular domain is determined by surface plasmon resonance-based measurements with a Biacore® instrument (either a Biacore 2000, Biacore 3000, or Biacore T100, GE Healthcare, Piscataway, N.J. US) using running buffer HBS-EPB (10 mM HEPES [pH 7.4], 150 mM NaCl, 3 mM EDTA, 0.1 mg/ml BSA and 0.005% surfactant P20) at 25° C. For example, approximately 9000 RU of goat anti-human Fc specific polyclonal antibody (Thermo Fisher Scientific Inc., Rockford, Ill., US) diluted in 10 mM sodium acetate (pH 4.5) is directly immobilized across a CM5 research grade biosensor chip using a standard amine coupling kit according to manufacturer's instructions and procedures at 25 μg/ml. Unreacted moieties on the biosensor surface are blocked with ethanolamine. For kinetic analysis, rate equations derived from the 1:1 Langmuir binding model are fitted simultaneously to multiple antigen injections (using global fit analysis) with the use of Scrubber 2 (BioLogic Software). […] The equilibrium dissociation constant KD (M) of the reaction between antibodies and the target antigen is then calculated from the kinetic rate constants by the following formula: KD=Koff/Kₒₙ. Binding is recorded as a function of time and kinetic rate constants are calculated. In this assay, on-rates as fast as 10⁶ M⁻¹s⁻¹ and off-rates as slow as 10⁻⁶ s⁻¹ can be measured.

[19] = biological target: T2, mouse DLL4 extracellular domain; experiment: Biacore SPR; remark: listed apart in the source
Experimental: as §6

[20] = biological target: T3, human DLL4 on the cell surface; experiment: FACS on DLL4 cells; remark: listed apart in the source
Experimental: (§7) Stable cell lines overexpressing cell-surface DLL4 were harvested from tissue culture flasks, washed four times and resuspended in phosphate buffered saline (PBS) containing 1% bovine serum albumin and 1 mM CaCl₂ (FACS buffer), 1.5×10³ cells were incubated with antibodies at various concentrations in FACS buffer for 60 minutes on ice. Cells were washed twice and 50 μL of R-phycoerythrin-conjugated anti-rat IgG. […] Following an incubation on ice (4° C., 60 minutes), cells were washed three times and resuspended in FACS buffer. Fluorescence was measured using a Becton Dickinson FACSCalibur-HTS (Becton Dickinson, San Jose. Calif., US). Data were analyzed using Graphpad Prism software and EC₅₀ values were reported as the concentration of antibody to achieve 50% of maximal DLL4 antibodies binding to DLL4 expressing cells.

[21] = biological target: T4, mouse DLL4 on the cell surface; experiment: competition FACS, competitor huNotch-1; remark: listed apart in the source
Experimental: as §4

[22] = biological target: T3, human DLL4 on the cell surface; experiment: competition FACS, competitor huNotch-1; remark: listed apart in the source
Experimental: as §4

[23] = biological target: T4, mouse DLL4 on the cell surface; experiment: FACS on DLL4 cells (*historic data)
human DLL4-his [24] = biological target: T5, human DLL4-his; experiment: ELISA on DLL4-his; remark: listed apart in the source
Experimental: as §5

mouse DLL4-his [25] = biological target: T6, mouse DLL4-his; experiment: ELISA on DLL4-his; remark: listed apart in the source
Experimental: as §5

[26] = biological target: T1, human DLL4 extracellular domain; experiment: competition ELISA, competitor huNotch-1; remark: listed apart in the source
Experimental: as §3

[27] = biological target: T2, mouse DLL4 extracellular domain; experiment: competition ELISA, competitor huNotch-1; remark: listed apart in the source
Experimental: as §3

[28] = biological target: T1, human DLL4 extracellular domain; experiment: Biacore SPR; remark: listed apart in the source
Experimental: as §6

[29] = biological target: T2, mouse DLL4 extracellular domain; experiment: Biacore SPR; remark: listed apart in the source
Experimental: as §6

[30] = biological target: T4, mouse DLL4 on the cell surface; experiment: FACS on DLL4 cells; remark: listed apart in the source
Experimental: as §7

[31] = biological target: T3, human DLL4 on the cell surface; experiment: FACS on DLL4 cells; remark: listed apart in the source
Experimental: as §7

[32] = biological target: T3, human DLL4 on the cell surface; experiment: FACS on DLL4 cells; remark: listed apart in the source
Experimental: as §7

[33] = biological target: T1, human DLL4 extracellular domain; experiment: capture ELISA; remark: listed apart in the source
Experimental: as §2

[34] = biological target: T1, human DLL4 extracellular domain; experiment: competition ELISA, competitor huNotch-1; remark: listed apart in the source
Experimental: as §3

[35] = biological target: T3, human DLL4 on the cell surface; experiment: competition FACS, competitor huNotch-1; remark: listed apart in the source
Experimental: as §4

[36] = biological target: T7, rat DLL4 extracellular domain (rat, UniProt D3ZHH1 28-530); experiment: Biacore SPR
T7 construct: extracellular domain; also called ratDLL4 ECD
Experimental: as §1

[37] = biological target: T1, human DLL4 extracellular domain; experiment: Biacore SPR; remark: listed apart in the source
Experimental: as §1

[38] = biological target: T2, mouse DLL4 extracellular domain; experiment: Biacore SPR; remark: listed apart in the source
Experimental: as §1

[39] = biological target: T1, human DLL4 extracellular domain; experiment: cell-based or functional assay
[40] = biological target: T3, human DLL4 on the cell surface; experiment: cell-based or functional assay; remark: listed apart in the source

T4 sequence (Q9JI71 27-686): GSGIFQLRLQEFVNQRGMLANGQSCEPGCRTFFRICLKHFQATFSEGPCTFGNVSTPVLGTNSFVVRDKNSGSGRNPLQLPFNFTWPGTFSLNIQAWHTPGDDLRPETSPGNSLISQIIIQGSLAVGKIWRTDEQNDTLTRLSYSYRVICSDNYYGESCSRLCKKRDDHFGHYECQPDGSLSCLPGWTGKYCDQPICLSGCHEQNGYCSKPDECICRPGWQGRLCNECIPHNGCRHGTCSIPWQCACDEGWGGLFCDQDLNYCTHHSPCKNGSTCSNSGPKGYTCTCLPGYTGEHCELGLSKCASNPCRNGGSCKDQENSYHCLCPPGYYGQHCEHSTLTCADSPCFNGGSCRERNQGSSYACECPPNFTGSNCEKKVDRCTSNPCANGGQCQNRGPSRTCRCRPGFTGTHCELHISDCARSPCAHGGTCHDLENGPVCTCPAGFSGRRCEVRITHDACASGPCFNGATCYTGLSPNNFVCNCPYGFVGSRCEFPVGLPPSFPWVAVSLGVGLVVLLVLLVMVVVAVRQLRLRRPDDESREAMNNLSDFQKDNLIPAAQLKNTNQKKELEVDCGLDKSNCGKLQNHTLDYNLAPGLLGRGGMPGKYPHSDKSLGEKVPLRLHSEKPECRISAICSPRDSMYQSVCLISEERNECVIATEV
T6 sequence (Q9JI71 27-532): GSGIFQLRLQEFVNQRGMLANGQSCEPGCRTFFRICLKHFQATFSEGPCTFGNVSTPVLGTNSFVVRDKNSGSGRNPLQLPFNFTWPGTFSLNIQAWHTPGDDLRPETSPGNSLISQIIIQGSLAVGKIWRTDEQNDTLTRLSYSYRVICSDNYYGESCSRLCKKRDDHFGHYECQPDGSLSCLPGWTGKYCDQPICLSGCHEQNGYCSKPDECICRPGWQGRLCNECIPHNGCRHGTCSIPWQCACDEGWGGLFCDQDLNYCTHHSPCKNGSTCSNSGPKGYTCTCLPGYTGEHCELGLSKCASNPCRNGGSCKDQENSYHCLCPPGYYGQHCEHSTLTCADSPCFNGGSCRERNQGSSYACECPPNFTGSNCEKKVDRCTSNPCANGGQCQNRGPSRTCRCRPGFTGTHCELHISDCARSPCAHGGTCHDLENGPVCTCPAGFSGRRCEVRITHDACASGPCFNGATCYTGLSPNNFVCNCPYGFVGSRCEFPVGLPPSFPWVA
T2 sequence (Q9JI71 27-532): as above
T7 sequence (D3ZHH1 28-530): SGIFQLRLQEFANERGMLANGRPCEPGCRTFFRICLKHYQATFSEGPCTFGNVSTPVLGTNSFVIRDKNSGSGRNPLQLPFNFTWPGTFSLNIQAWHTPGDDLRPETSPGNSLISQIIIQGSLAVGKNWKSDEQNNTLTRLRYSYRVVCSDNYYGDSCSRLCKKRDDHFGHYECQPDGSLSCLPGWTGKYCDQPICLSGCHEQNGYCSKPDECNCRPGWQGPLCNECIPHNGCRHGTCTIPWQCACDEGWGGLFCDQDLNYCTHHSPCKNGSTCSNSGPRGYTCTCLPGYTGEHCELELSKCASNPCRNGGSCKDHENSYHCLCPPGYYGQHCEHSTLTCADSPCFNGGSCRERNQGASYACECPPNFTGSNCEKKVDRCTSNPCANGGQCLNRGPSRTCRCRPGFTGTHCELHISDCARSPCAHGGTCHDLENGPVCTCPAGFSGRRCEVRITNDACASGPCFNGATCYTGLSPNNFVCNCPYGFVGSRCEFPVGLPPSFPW

B1: E9.19 (antibody, V domains shown)
VH: EVQLQESGPGLVKPSETLSLTCTVSGGSISSSSYYWGWIRQPPGKGLEWIGDIYYTGSTYYNPSLKSRVTISVDTSKNQFSLKLSSVTAADTAVYYCARFDVSLGGGSDTWGQGTLVTVSS
VL: SYELTQPPSVSVSPGQTASITCSGQRLGDKYASWYQQKPGQSPVLVIYEDSKRPSGIPERFSGSNSGDTATLTISGTQPMDEADYYCQAWDRDTGVFGYGTKVTVL
notes: also called DLL4-E9-19 hIgG1/L
With B1 the Kd [1] was 0.69 nM, the koff [1] was 5.17e-05 s⁻¹ and the kon [1] was 74900 M⁻¹ s⁻¹. For the same binder, the Kd [2] was 3.07 nM, the koff [2] was 0.000206 s⁻¹ and the kon [2] was 67000 M⁻¹ s⁻¹. For the same binder, the “Inhibition of Notch activation via huDLL4 cells, coculture (IC50, nM)” value (“Inhibition … coculture (IC50, nM)” below) [3] was 4.4 nM, the EC50 [4] was 0.17 nM and the EC50 [5] was 0.17 nM. For the same binder, the IC50 [6] was 1.8 nM, the IC50 [7] was 1.3 nM and the EC50 [8] was 0.54 nM. The EC50 [9] was 2.79 nM, the IC50 [10] was 0.44 nM and the IC50 [11] was 4.9 nM.

B2: E9.2B (antibody, V domains shown)
VH: B1 VH with S33N, Y54N, T56N, S58N, F100E, D101A, S103A, S108A, T110D
VL: B1 VL with Q25E, R26G, A32V, K52T, R92S, D93E, Y99S
B2 gave a Kd [1] of 0.02 nM, a koff [1] of 7.9e-06 s⁻¹ and a kon [1] of 356000 M⁻¹ s⁻¹. The “Inhibition … coculture (IC50, nM)” value [3] was 2.1 nM, the EC50 [4] was 0.16 nM and the EC50 [5] was 0.16 nM. For the same binder, the IC50 [6] was 2.3 nM, the IC50 [7] was 2.8 nM and the EC50 [8] was 0.35 nM. For the same binder, the EC50 [9] was 1.78 nM, the IC50 [10] was 0.34 nM and the IC50 [11] was 2.63 nM.

B3: E9.1 (antibody, human IgG1, V domains shown)
VH: B1 VH with F100E, S103I, G105R, T110Y
VL: SYELTQPPSVSVSPGQTASITCSGQRLGDKYASWYQQKPGQSPVLVIYEDSKRPSGIPERFSGSNSGDTATLTISGTQPMDEADYYCQAWDRDTGVFGYGTRVTVLG
Binder B3 has an EC50 (human DLL4-his [12]) of 0.03 nM, an EC50 (mouse DLL4-his [13]) of 0.04 nM and an IC50 [14] of 2.2 nM. The IC50 [15] was 5.85 nM, the IC50 [16] was 1.06 nM and the IC50 [17] was 1.62 nM. For the same binder, the Kd [18] was 2.38 nM, the Kd [19] was 12.8 nM and the Kd [20] was 0.35 nM. For the same binder, the IC50 [21] was 1.02 nM, the IC50 [22] was 4.55 nM and the Kd [23] was 1.6 nM. It also gave an EC50 (human DLL4-his [24]) of 0.29 nM, an EC50 (mouse DLL4-his [25]) of 0.34 nM and an IC50 [26] of 2.5 nM. For the same binder, the IC50 [27] was 2.5 nM, the Kd [28] was 0.52 nM and the Kd [29] was 1.1 nM. For the same binder, the Kd [30] was 1.66 nM and the Kd [31] was 3.62 nM.

B4: E9.71 (antibody, V domains shown)
VH: B1 VH with F100Q, D101A, V102L, S103A, L104M, T110K
VL: B1 VL
notes: also called DLL4-E9-71 hIgG1/L
B4 was tested, and the Kd [1] was 0.91 nM, the koff [1] was 3.51e-05 s⁻¹ and the kon [1] was 38800 M⁻¹ s⁻¹. For the same binder, the Kd [2] was 6.08 nM, the koff [2] was 0.000216 s⁻¹ and the kon [2] was 35500 M⁻¹ s⁻¹. The “Inhibition … coculture (IC50, nM)” value [3] was 2.1 nM, the EC50 [4] was 0.16 nM and the EC50 [5] was 0.17 nM. The IC50 [6] was 2 nM, the IC50 [7] was 1.3 nM and the EC50 [8] was 0.32 nM. The EC50 [9] was 1.82 nM, the IC50 [10] was 0.24 nM and the IC50 [11] was 3.22 nM.

B5: E9-FR1 (antibody, V domains shown)
VH: EVQLVQSGTEVKKPGESLKISCKVSGGSISSSSYYWGWIRQMPGKGLEWIGDIYYTGSTYYNPSLKSQVTISVDTSFNTFFLQWSSLKASDTAMYYCAREDVILRGGSDYWGQGTMVTVSS
VL: EYVLTQSPATLSVSPGERATLSCSGQRLGDKYASWYQQKPGQSPRLVIYEDSKRPSDIPARFSGSNSGDEATLTISSLQSEDFAVYYCQAWDRDTGVFGQGTRLEIKR
notes: full-length human IgG1
Work on B5 yielded an EC50 (human DLL4-his [12]) of 0.11 nM, an EC50 (mouse DLL4-his [13]) of 0.13 nM and an IC50 [14] of 1.54 nM. The IC50 [15] was 3.35 nM, the IC50 [16] was 0.98 nM and the IC50 [17] was 1.57 nM. The Kd [28] was 0.72 nM, the Kd [29] was 1.6 nM and the Kd [30] was 2.51 nM. It also gave a Kd [31] of 4 nM.

B6: E9-FR2 (antibody, V domains shown)
VH: EVTLRESGPALVKPTQTLTLTCTVSGGSISSSSYYWGWIRQPPGKGLEWIGDIYYTGSTYYNPSLKSRVTISVDTSKNQFVLTMTNMDPVDTATYYCAREDVILRGGSDYWGQGTTVTVSS
VL: DYVLTQSPDSLAVSLGERATINCSGQRLGDKYASWYQQKPGQSPKLVIYEDSKRPSGIPDRFSGSNSGDDATLTISSLQAEDVAVYYCQAWDRDTGVFGGGTKVEIKR
notes: full-length human IgG1
Work on B6 yielded an EC50 (human DLL4-his [12]) of 0.105 nM, an EC50 (mouse DLL4-his [13]) of 0.125 nM and an IC50 [14] of 1.52 nM. The IC50 [15] was 4.35 nM, the IC50 [16] was 1.07 nM and the IC50 [17] was 3.03 nM. The Kd [28] was 0.31 nM, the Kd [29] was 0.69 nM and the Kd [30] was 3.57 nM. For the same binder, the Kd [31] was 6.2 nM.

B7: A10 (antibody, IgG1, V domains shown)
VH: EVQLLESGGGLVKSGGSLRLSCAASGFTFRSHWMSWVRQAPGKGLEWVAIISYDGSNKYSADSVKGRFTISRDNSKNTLYLQLNSLRAEDTAVYYCAKAGGGNVGFDIWGQGTMVTVSS
VL: LPVLTQPPSVSVSPGQTASITCSADKLGTKYVSWYQQKPGQSPVLVIYQDAKRPSGIPERFSGSNSGNTATLTISGTQTMDEADYLCQSWDRSDVVFGGGTKVTVL
notes: also called anti-DLL4 PROfusion antibody A10
For B7, the EC50 [32] was 0.93 nM, the EC50 [33] was 0.17 nM and the IC50 [34] was 2.6 nM. The IC50 [35] was 4.4 nM, the binding result [36] was “no binding (tested: 900 nM DLL4)” and the Kd [37] was 6.68 nM. For the same binder, the koff [37] was 0.00015 s⁻¹, the kon [37] was 22000 M⁻¹ s⁻¹ and the binding result [38] was “no binding (tested: 900 nM DLL4)”. The “sVEGFR1 Inhibition (IC50, nM) DLL4 ECD/EaHy cells, hu” value [39] was 1.5 nM and the “Inhibition … coculture (IC50, nM)” value [40] was 7.3 nM.
